Here are results for six molecules from US20200262917A1 (Daiichi Sankyo, published 2020).

In experiment [1] the target is T1, FLAG-D3D4: domain 3 and onwards (263-525) of human LAG-3 with N-terminal FLAG tag, on cells (human, UniProt P18627 263-525).
T1 construct: Expressed on HEK293T cells from pcDNA3.1; any leader before the FLAG tag is not described; also called construct containing domains 3 and 4
T1 sequence: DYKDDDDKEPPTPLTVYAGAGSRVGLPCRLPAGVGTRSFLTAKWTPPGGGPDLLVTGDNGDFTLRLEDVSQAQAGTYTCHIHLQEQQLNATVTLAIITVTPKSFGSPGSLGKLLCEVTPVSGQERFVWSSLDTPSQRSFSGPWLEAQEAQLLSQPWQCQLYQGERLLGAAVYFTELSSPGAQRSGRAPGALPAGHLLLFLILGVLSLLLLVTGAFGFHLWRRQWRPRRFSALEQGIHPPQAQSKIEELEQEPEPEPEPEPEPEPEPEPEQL
The experiment is described as follows: same type of flow cytometry experiment using hybridoma culture supernatant. In general terms: Flow cytometry measures light scatter and fluorescence of single cells or particles in a stream.

Experiment [2] has as its target T2, human LAG-3 (full length, expressed on cells) (human, UniProt P18627 23-525).
T2 construct: also called CD223; hLAG-3
T2 sequence: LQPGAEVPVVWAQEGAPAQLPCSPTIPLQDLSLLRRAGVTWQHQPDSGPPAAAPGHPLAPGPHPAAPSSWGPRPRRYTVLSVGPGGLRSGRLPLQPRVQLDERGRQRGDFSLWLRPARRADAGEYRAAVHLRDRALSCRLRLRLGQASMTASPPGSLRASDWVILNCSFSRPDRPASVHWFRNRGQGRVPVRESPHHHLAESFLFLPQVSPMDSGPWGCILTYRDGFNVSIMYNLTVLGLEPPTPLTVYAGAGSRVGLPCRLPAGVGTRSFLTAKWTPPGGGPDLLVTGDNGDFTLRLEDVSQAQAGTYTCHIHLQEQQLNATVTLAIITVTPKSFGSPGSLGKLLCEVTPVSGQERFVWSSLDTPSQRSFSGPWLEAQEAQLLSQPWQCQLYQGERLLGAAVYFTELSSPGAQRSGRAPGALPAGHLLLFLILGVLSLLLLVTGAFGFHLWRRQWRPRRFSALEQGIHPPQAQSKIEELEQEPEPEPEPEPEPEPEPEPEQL
The experiment is described as follows: flow cytometry on PHA-activated human T cells (PHA blasts) expressing LAG-3.

The target of experiment [3] is T1, FLAG-D3D4: domain 3 and onwards …. The experiment can be described thus: flow cytometry on transfected HEK293T cells, antibody at 10 µg/mL. On the procedure:
(§1) It was further confirmed by flow cytometry that the antibody produced by the hybridomas determined to be positive by the Cell-ELISA in Example 1)-3 binds to PHA (phytohemagglutinin) activated human T cells (PHA blasts), a more physiologically relevant cell type expressing LAG-3. To human PBMCs stimulated with 2 μg/mL of PHA (manufactured by Sigma-Aldrich) for three days, was added a hybridoma culture supernatant for suspension, followed by reaction at 4° C. for 30 minutes. After washing with a FACS buffer (PBS, 0.1% BSA, and 0.1% sodium azide), a secondary antibody such as an Anti-Rat IgG PE conjugate (manufactured by Jackson ImmunoResearch Laboratories, Inc.) diluted 200-fold with a FACS buffer comprising a LIVE/DEAD Fixable Dead Cell Stain Kit-near-IR fluorescent reactive dye (manufactured by Invitrogen Corp.) was added thereto for suspension, followed by standing at 4° C. for 30 minutes. After washing with a FACS buffer, the cells were resuspended in PBS containing 1 to 2% paraformaldehyde, followed by detection using a flow cytometer (Cantoll: manufactured by Becton, Dickinson and Company or FC500: manufactured by Beckman Coulter Inc.). The data was analyzed using FlowJo (manufactured by Tree Star Inc). After removal of the LIVE/DEAD Fixable Dead Cell Stain Kit-near-IR fluorescent reactive dye-positive dead cells by gating, a histogram of the fluorescence intensity of the living cells was plotted.
(§2) Each expression plasmid (cloned into pcDNA3.1) of either domain 3 and onwards (263-525) or domain 4 and onwards (353-525) of human LAG-3 with a FLAG tag sequence ([…]) added to the N terminus was introduced into HEK293T cells using Lipofectamine 2000 (manufactured by Life Technologies Corp.), and the cells were cultured for 1 day and then recovered, to investigate the binding activity of the antibodies by flow cytometry according to the method described in Example 1)-4. […]

The target in experiment [4] is T3, FLAG-D4: domain 4 and onwards (353-525) of human LAG-3 with N-terminal FLAG tag, on cells (human, UniProt P18627 353-525).
T3 construct: Expressed on HEK293T cells from pcDNA3.1; any leader before the FLAG tag is not described; also called construct containing only domain 4
T3 sequence: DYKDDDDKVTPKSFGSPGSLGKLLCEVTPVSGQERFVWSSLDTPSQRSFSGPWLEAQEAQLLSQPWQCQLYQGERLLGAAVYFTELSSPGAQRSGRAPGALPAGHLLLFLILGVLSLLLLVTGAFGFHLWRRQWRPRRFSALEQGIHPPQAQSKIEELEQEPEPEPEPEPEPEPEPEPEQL
The experiment is described as follows: flow cytometry on transfected HEK293T cells. On the procedure:
as §1, §2

Experiment [5] deals with T2, human LAG-3 (full length, expressed on …). The experiment can be described thus: flow cytometry on human LAG-3-expressing 293T-lacZ cells. The method, then:
The flow cytometry was performed according to the method described in Example 1)-4, but an Anti-Human IgG PE conjugate (manufactured by Jackson ImmunoResearch Laboratories, Inc.) diluted 200-fold with a FACS buffer was used as the secondary antibody.

B1: rat anti-human LAG-3 monoclonal antibody rLA869 (antibody, V domains shown)
VH: EVQLVESGGGLVQPGRSLKLSCAASGFTYRTYVMAWVRQGPTQGLEWVASISTGGVSTYYRDSVKGRFTISRDNAKNTLYLQMDSLRSEDTATYYCAKDMLNGYNSQGLFDYWGQGVMVTVSS
VL: NIVMTQSPKSMSISVGDRVTMNCRASQNVDNTIAWYQQKPGQSPKLLIYFASDRYTGVPDRFTGGGYGTDFTLTINSVQAEDAAFYYCQRIYNSPLTFGSGTKLEIRR
notes: Rat monoclonal antibody
For B1, the binding result in experiment [1] and in experiment [2] was “binds” each time.

B2: rat anti-human LAG-3 monoclonal antibody rLA212 (antibody, V domains shown)
VH: EVQLVESGGGLVQPGRSLKLSCAASGFTYRSYVMAWVRQAPTRGLEWVASISTGGGNTYYRDSVKGRFTISRDNAKNTLYLQMDSLRSEDTATYYCAEDMSNSGYGLFDYWGQGVMVTVSS
VL: NIVMTQSPKSMSISVGDRVTMNCKAGQNVDNNIAWYQKKPGQSPKLLIYYASNRNTGVPDRFTGGGYGTDFTLTINSVQAEDAAFYYCQRISNSPYTFGAGTELELKR
notes: Rat monoclonal antibody purified from hybridoma supernatant; the rat constant regions are not
In the case of B2, the binding result in experiment [3] is “binds”; in experiment [2], “binds”; in experiment [4], “no binding (tested: 10 µg/mL)”.

B3: humanized anti-human LAG-3 antibody hLA212_H4/L2 (antibody, human IgG1, kappa, V domains shown)
VH: EVQLVESGGGLVQPGGSLRLSCAASGFTYRSYVMAWVRQAPGKGLEWVASISTGGGNTYYRDSVKGRFTISRDNAKNTLYLQMDSLRAEDTAVYYCAEDMSNSGYGLFDYWGQGTLVTVSS
VL: DIQMTQSPSSLSASVGDRVTITCKAGQNVDNNIAWYQQKPGQSPKLLIYYASNRNTGVPSRFSGSGYGTDFTLTISSLQPEDFATYYCQRISNSPYTFGQGTKVEIKR
modifications: defucosylated (sugar chain modification adjusted); peaks of fucose-containing H chain at or below the detection limit in mass spectrometry
notes: defucosylated form (human IgG1/kappa); also called hLA212 antibody H4/L2; low fucose form of hLA212_H3/L2
Regarding B3, the binding result in experiment [5] is “binds”.

B4: rat anti-human LAG-3 monoclonal antibody rLA225 (antibody, V domains shown)
VH: EVQLVESGGGLVQPGRSMKLSCVASGFTFSNYYMAWVRQAPTKGLEWVASISTGGGNTYYRDSVKGRFTISRDNAKSTLYLQMDSLRSEDTATYYCARPPYGYNYGWFTYWGQGTLVTVSS
VL: DIQMTQSPASLSASLGETVTIECRASEDIHNGLVWYQQKPGKSPQLLIYNANSMHTGVPSRFSGSGSGTQYSLKINSLQSEDVASYFCQQYYNYPRTFGGGTKLELKR
notes: as for B2
Regarding B4, the binding result was “binds” in experiment [3], “binds” in experiment [2] and “no binding (tested: 10 µg/mL)” in experiment [4].

B5: rat anti-human LAG-3 monoclonal antibody rLA204 (antibody, V domains shown)
VH: EVELVESGGGLVQPGRSMKLSCAASGFTFRTYGMAWVRQAPTKGLEWVASISTGGGSTYYRDSVKGRFTISRDNAKSTLYLQMDSLRSEDTATYYCTTDLINYPGIGGFAFWGQGTLVTVSS
VL: NIVMTQSPKSMSISVGDRVTMNCKASQNVYNNIAWYQQKPGKSPKLLIYYASNRYTGVPDRFTGSGSGTDFTLTIHSVQAEDAAFYYCQRLYNSPPTFGGGTKLELKR
notes: the rat constant regions are not
On to B5, for which the binding result is “binds” in experiment [3], “binds” in experiment [2] and “no binding (tested: 10 µg/mL)” in experiment [4].

B6: rat anti-human LAG-3 monoclonal antibody rLA1264 (antibody, V domains shown)
VH: EVQLVESGGGLVQPGRSLKLSCAASGFTFSSYYMAWVRQAPTKGLEWVAYISNGGYSTYYRDSVKGRFTISRENAKSTLYLQMDSLRSEDTATYYCTITDHSGYRFTYWGQGTLVTVSS
VL: DIQMTQSPSLLSASVGDRVTLSCKASQSIYNSLAWYQQKLGEAPKLLIYDANSLQTGIPSRFSGSGSGTDFTLTISSLQPEDVATYFCQKYYSGNTFGAGTKLELKR
notes: Rat monoclonal antibody
For B6, the binding result in experiment [1] and in experiment [2] was “binds” throughout.
